Data published in patent US20230272056A1 (Merck Sharp & Dohme, published 2023).
“And” between values parts separate entries of the source, which are not always exact repeats. Identical values can stand only once. Like-named read-outs stand apart in the source and are kept apart here. Each block holds one binder with its values, some of them ahead of it.

Tests used:
[1] = biological target: T1, human LAP-TGFB1 Fc fusion (human); experiment: SPR
T1 construct: also called human LAP-TGFβ1-Fc; human LAP-TGFβ-Fc isoform 1
T1 sequence (chain, as listed by the source limits assumed): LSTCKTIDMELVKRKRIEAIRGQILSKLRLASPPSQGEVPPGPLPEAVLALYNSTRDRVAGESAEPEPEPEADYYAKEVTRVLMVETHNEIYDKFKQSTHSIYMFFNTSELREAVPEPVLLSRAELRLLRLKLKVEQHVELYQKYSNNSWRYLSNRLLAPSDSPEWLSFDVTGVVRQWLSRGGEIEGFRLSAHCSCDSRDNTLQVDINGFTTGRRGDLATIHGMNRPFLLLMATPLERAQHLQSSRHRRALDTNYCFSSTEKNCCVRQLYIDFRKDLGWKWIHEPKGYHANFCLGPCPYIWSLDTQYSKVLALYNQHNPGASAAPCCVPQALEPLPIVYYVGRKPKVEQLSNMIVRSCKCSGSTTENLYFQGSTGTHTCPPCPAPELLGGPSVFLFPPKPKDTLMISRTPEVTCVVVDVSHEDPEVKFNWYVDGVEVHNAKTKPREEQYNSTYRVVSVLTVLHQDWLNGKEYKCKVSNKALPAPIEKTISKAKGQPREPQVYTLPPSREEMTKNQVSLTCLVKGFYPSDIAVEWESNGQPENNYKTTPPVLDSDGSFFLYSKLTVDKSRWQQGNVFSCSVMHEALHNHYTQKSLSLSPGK

[2] = biological target: T1, human LAP-TGFB1 Fc fusion; experiment: SPR pH 7.4, antigen-Fc captured, Fab analyte
[3] = biological target: T1, human LAP-TGFB1 Fc fusion; experiment: BLI off-rate screen
Method in brief: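 Tyrosine-substituted CDR Fab variants loaded at 200 nM on FAB2G biosensors, equilibrated 1 h at RT, then exposed to 100 nM human LAP-TGFβ1 for 180 s and dissociated 180 s. Off-rate from 1:1 model fit of dissociation phase only, after negative-control Fab subtraction.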

[4] = biological target: T1, human LAP-TGFB1 Fc fusion; experiment: SPR, antigen-Fc captured, Fab analyte
Method in brief: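 Surface plasmon resonance on a Biacore T200 measured how Fab fragments bind human LAP-TGFβ fused to Fc. The Fc protein was captured on a Series S CM4 chip carrying immobilized anti-human Fc antibody, with Fab injected as analyte in 1× HBS-EP+. Signals were double referenced, and rate constants came from a 1:1 binding fit.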

[5] = biological target: T1, human LAP-TGFB1 Fc fusion; experiment: BLI off-rate screen; remark: listed apart in the source
Procedure: The Fab mutants including a positive control, 20E6 Fab, and a negative control Fab (Molecular Innovations, catalog HU-FAB-4510) were diluted to 200 nM in assay buffer and loaded to FAB2G sensors for 180 seconds followed by a one-hour incubation at room temperature in assay buffer to equilibrate the tips. The Fab loaded sensors were assessed for binding with 100 nM human LAP-TGFβ for 180 seconds followed by a 180 second dissociation phase in assay buffer on a ForteBio HTX (software version 9.0.0.66). Non-specific binding to the negative control Fab was subtracted and the binding sensorgrams were aligned to the start of the association phase on the X and Y axis. The Fab binding was fit with the 1:1 binding model, dissociation phase only, with local fitting using ForteBio Data Analysis 9.0 software.

[6] = biological target: T1, human LAP-TGFB1 Fc fusion; experiment: SPR, antigen-Fc captured, Fab analyte; remark: listed apart in the source
[7] = biological target: T1, human LAP-TGFB1 Fc fusion; experiment: SPR pH 7.4, antigen-Fc captured, Fab analyte; remark: listed apart in the source
[8] = biological target: T2, human LAP-TGFB3 Fc fusion (human); experiment: SPR
T2 construct: also called human LAP-TGFβ3; LAP-TGFβ isoform 3
T2 sequence (chain, as listed by the source limits assumed): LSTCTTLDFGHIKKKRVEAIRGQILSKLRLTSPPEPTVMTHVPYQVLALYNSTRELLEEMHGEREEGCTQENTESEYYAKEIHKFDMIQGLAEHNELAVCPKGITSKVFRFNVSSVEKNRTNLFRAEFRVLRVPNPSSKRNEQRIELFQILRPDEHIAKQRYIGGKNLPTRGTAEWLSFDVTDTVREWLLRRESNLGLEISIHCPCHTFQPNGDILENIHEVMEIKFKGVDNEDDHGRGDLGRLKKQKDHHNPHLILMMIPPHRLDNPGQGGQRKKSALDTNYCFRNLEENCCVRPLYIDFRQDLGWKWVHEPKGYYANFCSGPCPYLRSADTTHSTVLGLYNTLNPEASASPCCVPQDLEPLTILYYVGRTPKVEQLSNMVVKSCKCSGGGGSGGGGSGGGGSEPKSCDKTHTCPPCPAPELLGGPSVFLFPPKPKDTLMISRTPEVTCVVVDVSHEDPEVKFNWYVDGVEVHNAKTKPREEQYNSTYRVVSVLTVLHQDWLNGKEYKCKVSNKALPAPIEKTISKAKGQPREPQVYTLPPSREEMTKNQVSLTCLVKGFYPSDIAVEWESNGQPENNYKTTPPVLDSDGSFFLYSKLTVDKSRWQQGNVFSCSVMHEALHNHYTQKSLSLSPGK
Procedure: (§1) A Series S CM4 sensor chip (GE Healthcare, catalog BR100534) was immobilized with an anti-human Fc capture antibody following the kit protocol (GE Healthcare, catalog BR100839) on a Biacore T200 instrument with 1× HBS-EP+ (Teknova, catalog H8022). […] Binding specificity between human LAP-TGFβ isoforms 2 and 3 and the tyrosine scanning double mutants were performed in 1× HEPES-buffered saline with EDTA and surfactant (HBS)-EP)+with 0.1 mg/mL BSA at 25° C. […] The binding data were double referenced by subtraction of signal from a reference (capture surface only) flow cell and the negative control 0 nM Fab injection. Binding rate constants were determined by fitting the data with a 1:1 binding model (GE Healthcare Biacore T200 Evaluation software 3.0).

[9] = biological target: T3, human LAP-TGFB2 Fc fusion (human); experiment: SPR
T3 construct: also called human LAP-TGFβ2; LAP-TGFβ isoform 2
T3 sequence (chain, as listed by the source limits assumed): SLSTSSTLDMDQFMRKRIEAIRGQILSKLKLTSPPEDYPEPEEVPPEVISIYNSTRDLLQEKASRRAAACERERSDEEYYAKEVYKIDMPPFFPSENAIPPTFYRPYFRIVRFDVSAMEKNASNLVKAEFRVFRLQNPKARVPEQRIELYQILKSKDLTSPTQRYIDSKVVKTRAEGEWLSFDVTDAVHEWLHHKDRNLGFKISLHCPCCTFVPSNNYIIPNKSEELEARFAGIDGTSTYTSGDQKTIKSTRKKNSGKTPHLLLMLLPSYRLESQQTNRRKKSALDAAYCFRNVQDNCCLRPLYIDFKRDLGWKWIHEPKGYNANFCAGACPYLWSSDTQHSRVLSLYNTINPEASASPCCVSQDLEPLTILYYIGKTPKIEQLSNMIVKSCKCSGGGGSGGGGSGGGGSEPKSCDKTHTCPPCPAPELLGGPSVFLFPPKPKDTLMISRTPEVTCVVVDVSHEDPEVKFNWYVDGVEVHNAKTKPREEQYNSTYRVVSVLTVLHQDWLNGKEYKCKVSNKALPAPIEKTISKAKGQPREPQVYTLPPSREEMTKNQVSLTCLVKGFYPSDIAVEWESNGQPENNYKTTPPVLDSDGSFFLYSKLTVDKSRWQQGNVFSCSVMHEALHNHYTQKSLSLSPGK
Procedure: as §1

[10] = biological target: T1, human LAP-TGFB1 Fc fusion; experiment: SPR pH 6.0, antigen-Fc captured, Fab analyte
Procedure: A Series S CM4 sensor chip (Cytiva, catalog BR100534) was immobilized with an anti-human Fc capture antibody following the kit protocol (Cytiva, catalog BR100839) on a Biacore T200 instrument with 1× HBS-EP+ (Teknova, catalog H8022). […] The binding data were double referenced by subtraction of signal from a reference (capture surface only) flow cell and the 0 nM Fab injection. Binding rate constants were determined by fitting the data with a 1:1 binding model (Cytiva Biacore T200 Evaluation software 3.0).

[11] = biological target: T2, human LAP-TGFB3 Fc fusion; experiment: SPR; remark: listed apart in the source
Method in brief: (§2)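 Fc-tagged human LAP-TGFβ2 and 3 captured at ~20-40 RU on anti-human Fc surface in HBS-EP+ with 0.1 mg/mL BSA, 25° C; Fab injected at 1000 nM. Double-referenced against capture-only flow cell and 0 nM Fab; rate constants from 1:1 binding model fit.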

[12] = biological target: T3, human LAP-TGFB2 Fc fusion; experiment: SPR; remark: listed apart in the source
Method in brief: as §2

[13] = biological target: T4, human LAP-TGFβ1 (construct not stated) (human, UniProt P01137 30-390); experiment: KinExA, Fab as constant binding partner
T4 construct: also called human LAP-TGFβ isoform 1; titrant
T4 sequence (P01137 30-390 limits assumed): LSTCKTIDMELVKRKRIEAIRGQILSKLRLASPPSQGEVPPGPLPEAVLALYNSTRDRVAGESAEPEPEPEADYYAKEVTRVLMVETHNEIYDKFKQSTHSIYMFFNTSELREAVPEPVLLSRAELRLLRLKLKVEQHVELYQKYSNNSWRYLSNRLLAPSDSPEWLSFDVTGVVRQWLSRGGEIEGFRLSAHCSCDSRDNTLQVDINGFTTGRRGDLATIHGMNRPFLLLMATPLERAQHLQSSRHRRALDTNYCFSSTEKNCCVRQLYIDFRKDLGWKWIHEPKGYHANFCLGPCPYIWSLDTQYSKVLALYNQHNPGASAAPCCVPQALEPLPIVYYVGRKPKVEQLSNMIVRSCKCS
Procedure: An orthogonal kinetic exclusion assay (KinExA) method was used in this study to measure the affinity of an affinity-matured anti-LAP-TGF β1 Fab 69BJN (referred to as the constant binding partner, CBP) and human LAP-TGFβ1 (referred to as the titrant). […] Two equilibrium experiments were prepared in assay buffer (1× PBS, 1 mg/mL BSA, and 0.05% NaN₃) with 5 pM or 100 pM of 69BJN as CBP followed by mixing and equilibrating with 1:10 serially diluted human LAP-TGFβ1 from 10 nM to 1 pM including a negative control 0 nM. The KinExA method was performed as follows: PMMA beads were loaded into the flow cell, a single concentration of titrant human LAP-TGFβ1 at equilibrium with 69BJN CBP was flowed over the flow cell, free CBP bound by PMMA beads was detected with rabbit anti-human IgG, F(ab′)₂ fragment specific-647 conjugate (Jackson Immunoresearch, catalog 309-005-006). This method was repeated in duplicate over the entire concentration series for each of the two different equilibrium series. The binding signals were analyzed with KinExA Pro software (version 4.4.26) where the free CBP binding signals were converted into percent free response and plotted against the titrant concentration series. The equilibrium KD was determined by using the titrant concentration as a reference and calculating percent activity of the ligand (CBP).

Fold change in KD from pH 7.4 to pH 6 [1]: 1.8 fold
Fold improvement in KD [2]: 1 fold
Kd [2]: 58.5 nM
koff [2]: 0.0769 s⁻¹
kon [2]: 1.32e+06 M⁻¹ s⁻¹
koff [3]: 0.0468 s⁻¹ and 0.0381 s⁻¹
Fold improvement in KD [4]: 1 fold
Kd [4]: 79.9 nM
koff [4]: 0.0769 s⁻¹
kon [4]: 960000 M⁻¹ s⁻¹
koff [5]: 0.0468 s⁻¹ and 0.0381 s⁻¹
Fold improvement in KD [6]: 1 fold
Kd [6]: 81.2 nM
koff [6]: 0.103 s⁻¹
kon [6]: 1.45e+06 M⁻¹ s⁻¹
Kd [7]: 58.5 nM
koff [7]: 0.0769 s⁻¹
kon [7]: 1.32e+06 M⁻¹ s⁻¹
binding result [8]: no binding (tested: 1000 nM Fab)
binding result [9]: no binding (tested: 1000 nM Fab)
Kd [10]: 103 nM
koff [10]: 0.096 s⁻¹
kon [10]: 934000 M⁻¹ s⁻¹
B1: 20E6 Fab (80BGJ/85BIT) (Fab, V domains shown)
VH: EVQLVQSGAEVKKPGASVKVSCKASGYTFTSYWMHWVRQAPGQGLEWMGRIDPQSGGIKYAQKFQGRATLTVDTSTSTAYMELSRLRSDDTAVYYCARWDYGGYFDVWGQGTLVTVSS
VL: DIQMTQSPSSLSASVGDRVTITCRASQDITNYLNWYQQKPGKAVKLLIYYTSRLHSGVPSRFSGSGSGTDYTLTISSLQPEDFATYFCQQGDTLPWTFGQGTKLEIKR
notes: also called 20E6 (80BGJ); 20E6 (85BIT)

binding result [11]: no binding (tested: 1000 nM Fab)
binding result [12]: no binding (tested: 1000 nM Fab)
Fold improvement in KD [4]: 695 fold
Kd [4]: 0.115 nM
koff [4]: 0.000488 s⁻¹
kon [4]: 4.25e+06 M⁻¹ s⁻¹
Kd [13]: 0.028 nM
B2: 69BJN (Fab, V domains shown)
VH: EVQLVQSGAEVKKPGASVKVSCKASGYTFTSYDMHWVRQAPGQGLEWMGRIDPQSGGTKYAQKFQGRATLTVDTSTSTAYMELSRLRSDDTAVYYCARWDYGGYFDVWGQGTLVTVSS
VL: DIQMTQSPSSLSASVGDRVTITCRASQDIYNYLNWYQQKPGKAVKLLIYYTSVLHSGVPSRFSGSGSGTDYTLTISSLQPEDFATYFCQQGDTLPWTFGQGTKLEIKR
notes: also called VH W33D I58T / VL T30Y R53V (69BJN)
